Data from PMC2930196.

Biological target: Phospholipid transfer protein (PLTP) in human plasma (human (endogenous in plasma)) (UniProt P55058)
Assay: co-IP

Chain of UniProt P55058 (P55058 18-493): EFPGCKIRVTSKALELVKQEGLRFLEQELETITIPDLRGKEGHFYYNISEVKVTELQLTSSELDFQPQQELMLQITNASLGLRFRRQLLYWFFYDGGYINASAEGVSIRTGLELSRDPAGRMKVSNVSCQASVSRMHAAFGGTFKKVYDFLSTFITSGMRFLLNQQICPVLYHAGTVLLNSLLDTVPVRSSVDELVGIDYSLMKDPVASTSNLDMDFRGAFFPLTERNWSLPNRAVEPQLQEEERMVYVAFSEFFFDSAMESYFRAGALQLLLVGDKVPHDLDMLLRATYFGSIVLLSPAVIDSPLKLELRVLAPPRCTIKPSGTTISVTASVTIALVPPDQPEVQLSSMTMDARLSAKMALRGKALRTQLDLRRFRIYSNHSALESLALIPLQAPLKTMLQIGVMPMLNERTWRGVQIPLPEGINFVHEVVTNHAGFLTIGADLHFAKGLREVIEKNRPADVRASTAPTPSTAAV

Substance: Clusterin (apoJ) in human plasma (natural protein)
- molar ratio of clusterin, PLTP and apoA-I in the isolated PLTP complexes (ELISA): 5
